Test results: patent EP1032654B1, “THERMOSTABLE GLUCOAMYLASE” (Novozymes A/S, priority 1997, dated 1999)

B1: recombinant Talaromyces emersonii AMG (glucoamylase) expressed in A. niger, SEQ ID NO: 7 (Rasamsonia emersonii) (protein)
chain: ATGSLDSFLATETPIALQGVLNNIGPNGADVAGASAGIVVASPSRSDPNYFYSWTRDAALTAKYLVDAFIAGNKDLEQTIQQYISAQAKVQTISNPSGDLSTGGLGEPKFNVNETAFTGPWGRPQRDGPALRATALIAYANYLIDNGEASTADEIIWPIVQNDLSYITQYWNSSTFDLWEEVEGSSFFTTAVQHRALVEGNALATRLNHTCSNCVSQAPQVLCFLQSYWTGSYVLANFGGSGRSGKDVNSILGSIHTFDPAGGCDDSTFQPCSARALANHKVVTDSFRSIYAINSGIAEGSAVAVGRYPEDVYQGGNPWYLATAAAAEQLYDAIYQWKKIGSISITDVSLPFFQDIYPSAAVGTYNSGSTTFNDIISAVQTYGDGYLSIVEKYTPSDGSLTEQFSRTDGTPLSASALTWSYASLLTASARRQSVVPASWGESSASSVPAVCSATSATGPYSTATNTVWPSSGSGSSTTTSSAPCTTPTSVAVTFDEIVSTSYGETIYLAGSIPELGNWSTASAIPLRADAYTNSNPLWYVTVNLPPGTSFEYKFFKNQTDGTIVWEDDPNRSYTVPAYCGQTTAILDDSWQ
B2: Aspergillus niger AMG (glucoamylase G1), SEQ ID NO: 9 (Aspergillus niger) (protein)
chain: ATLDSWLSNEATVARTAILNNIGADGAWVSGADSGIVVASPSTDNPDYFYTWTRDSGLVLKTLVDLFRNGDTSLLSTIENYISAQAIVQGISNPSGDLSSGAGLGEPKFNVDETAYTGSWGRPQRDGPALRATAMIGFGQWLLDNGYTSTATDIVWPLVRNDLSYVAQYWNQTGYDLWEEVNGSSFFTIAVQHRALVEGSAFATAVGSSCSWCDSQAPEILCYLQSFWTGSFILANFDSSRSGKDANTLLGSIHTFDPEAACDDSTFQPCSPRALANHKEVVDSFRSIYTLNDGLSDSEAVAVGRYPEDTYYNGNPWFLCTLAAAEQLYDALYQWDKQGSLEVTDVSLDFFKALYSDAATGTYSSSSSTYSSIVDAVKTFADGFVSIVETHAASNGSMSEQYDKSDGEQLSARDLTWSYAALLTANNRRNSVVPASWGETSASSVPGTCAATSAIGTYSSVTVTSWPSIVATGGTTTTATPTGSGSVTSTSKTTATASKTSTSTSSTSCTTPTAVAVTFDLTATTTYGENIYLVGSISQLGDWETSDGIALSADKYTSSDPLWYVTVTLPAGESFEYKFIRIESDDSVEWESDPNREYTVPQACGTSTATVTDTWR

Assays:
Experiment in all cases: Kinetic parameters for hydrolysis of maltose and isomaltose
Conditions in all cases: other: At 45°C using 0.05 M NaOAc, pH 4.5
[1] = substrate: OC[C@H]1O[C@H](OC[C@H]2OC(O)[C@H](O)[C@@H](O)[C@@H]2O)[C@H](O)[C@@H](O)[C@@H]1O; assay type: biochemical, Talaromyces emersonii
Method: (§1) 50 microL enzyme diluted in sodium acetate is added,and the activity was determined using the AGU standard method described above. The kinetic parameters: Kcat and Km are measured at 45°C by adding 50 microL enzyme diluted in sodium acetate to preheated 750 microL substrate. Aliquots of 100 microL are removed after 0, 3, 6, 9 and 12 minutes and transferred to 100 microL 0.4M Sodium hydroxide to stop the reaction. A blank is included.
(§2) 20 microL is transferred to a Micro titre plates and 200 microL GOD-Perid solution is added. Absorbance is measured at 650 nm after 30 minutes incubation at room temperature. Glucose is used as standard, and the specific activity is calculated as kcat (sec. ^-1)
(§3) Kinetic Parameters for Hydrolysis of Maltose and Isomaltose by Aspergillus niger AMG and the recombinant Talaromyces emersonii AMG expressed in A. niger.

[2] = substrate: OC[C@H]1O[C@H](O[C@H]2[C@H](O)[C@@H](O)[C@H](O)O[C@@H]2CO)[C@H](O)[C@@H](O)[C@@H]1O; assay type: biochemical, Talaromyces emersonii
Method: as §1, §2, §3

[3] = substrate: OC[C@H]1O[C@H](OC[C@H]2OC(O)[C@H](O)[C@@H](O)[C@@H]2O)[C@H](O)[C@@H](O)[C@@H]1O; assay type: biochemical, Aspergillus niger
Method: as §1, §2, §3

[4] = substrate: OC[C@H]1O[C@H](O[C@H]2[C@H](O)[C@@H](O)[C@H](O)O[C@@H]2CO)[C@H](O)[C@@H](O)[C@@H]1O; assay type: biochemical, Aspergillus niger
Method: as §1, §2, §3

| Protein | Km [1] | kcat [1] | kcat/Km [1] | Km [2] | kcat [2] | kcat/Km [2] | Km [3] | kcat [3] | kcat/Km [3] | Km [4] | kcat [4] | kcat/Km [4] |
| --- | --- | --- | --- | --- | --- | --- | --- | --- | --- | --- | --- | --- |
| B1 | 53.6 mM | 2.70 s⁻¹ | 50 M⁻¹ s⁻¹ | 3.8 mM | 30.6 s⁻¹ | 8100 M⁻¹ s⁻¹ |  |  |  |  |  |  |
| B2 |  |  |  |  |  |  | 19.8 mM | 0.41 s⁻¹ | 21 M⁻¹ s⁻¹ | 1.2 mM | 10.7 s⁻¹ | 8800 M⁻¹ s⁻¹ |
